From patent US10077436B2, “Beta-glucosidase enzymes for increased biomass saccharification” (Edeniq, Inc., priority 2013, dated 2018) come the findings set out here.

Numbering of substitutions follows the chain as printed. Numbers in names are those of the source.

Common to all, as to format: biochemical
Data set [1] is described as follows: BG activity assay / kinetics using pNPG substrate. The settings on record: all conditions except initial glucose 36 g/L. The procedure:
BG activity assay using pNPG is one of the two commonly used standard assays to measure BG activity, which utilizes hydrolysis of p-nitrophenyl-β-D-glucopyranoside (pNPG) by BG into a yellow colored product, p-nitrophenol (pNP), that has a strong absorbance at 405 nm. One pNPG unit is defined as the amount of enzyme that produces 1 μmol of pNP per min. Briefly, to determine BG activity, 25 μL of diluted enzyme in 200 mM sodium acetate buffer (pH 5.0) was mixed with 25 μL of the same buffer and 25 μL of RO water (or glucose solution for the kinetic study) and the mixture was preincubated at 50° C. for 5 min. […] The reaction was then terminated by adding 100 μL of 0.25 M sodium carbonate, and the amount of pNP produced was determined by measuring absorbance at 405 nm using a predetermined calibration curve. […]
To determine the kinetic properties, a competitive inhibition mechanism was hypothesized as proposed in the literature (Chauve et al, 2010; Krogh et al, 2010). […] The turnover number, Kcat, can be calculated by Equation (2), where [Et] is the total amount of enzyme.
Conventionally, linearization methods can be used to determine the kinetic parameters based on Equation (1). […] Thus, Vmax, Km and Ki can be determined simultaneously from this fitting process, and Km/Ki can then be calculated. Kcat can be obtained by Equation (2) and Kcat/Km can be calculated accordingly.

Data set [2] can be described thus: BG (cellobiase) activity assay / kinetics using cellobiose substrate, HPLC. The procedure: BG activity assay using cellobiose is the other standard assay to measure BG or cellobiase activity, which utilizes hydrolysis of cellobiose by cellobiase into two molecules of glucose, the last step of enzymatic hydrolysis of cellulose. One cellobiase unit (commonly termed as CBU) is defined as the amount of enzyme that converts […] of cellobiose or produces 2 μmol of glucose per min. Briefly, to determine BG activity, 25 μL of diluted enzyme in 50 mM citrate buffer (pH 4.8) equilibrated to 50° C. was mixed with 25 μL cellobiose (or cellobiose/glucose mixture for the kinetic study) to start the reaction. The mixture was incubated at 50° C. for 10 min, and the reaction was terminated by incubating the mixture at 99° C. for 5 min. Different methods are available to measure the glucose produced in the assays. For the kinetic study, HPLC was used. […]
The specific activity used here was determined by the initial velocity approach that is required by implementing Michaelis-Menten model (Copeland, 2000). The specific activity was determined by measuring consumption of cellobiose in the first 10 min of reaction and was expressed as μmol min^−1 mg^−1, where mg^−1 means per mg of total protein. The relative activity was determined based on the maximum activity obtained in the absence of initial glucose inhibition.

Data set [3] in a line: BG supplementation of Celluclast in 48-hour saccharification of filter paper. The settings on record: for optimal CBU/FPU ratio (optimal BG dosage): 10% solid loading, 20% Celluclast loading. The procedure:
Experimental conditions in this example using filter paper substrate was 10% solid loading and 20% Celluclast loading based on glucan content. Different BG dosage based on CBU:FPU (BG activity/total cellulase activity) was tested.
Enhancement of glucose release (Equation 5) and lift of sugar conversion (Equation 6) was compared among various BGs at the optimal dosage over time in FIG. 8.

The nature of data set [4]: BG supplementation of commercial cellulase preparations in corn stover saccharification. The settings on record: added to commercial enzyme preparation, 50° C. From the text:
In this experiment, 10% CTecII per gram glucan and 0.5% HtecII per mass solids was used as a control level for high saccharification of pretreated biomass. The relatively low enzyme dose of 3% Genencor® Trio per gram glucan was used as a base enzyme level to observe increases in saccharification from supplementation with BG enzymes. Enzyme doses of 0.5%, 1% and 2% of HtecII were used in a parallel set of reactions to likewise observe increases in saccharification from supplementation with concentrated extract from yEdQ745, yeast expressing wild type BG and another set of samples supplemented with commercial BG. • BG were used from two sources: wild type BG (yEdQ745) and commercial BG (Nozyme product SP-188). • Commercial cellulase preparations: Novozymes CtecII, Novozymes HtecII and Genencor® Trio. • Biomass used for the experiment: For each reaction 3 gms from Run 177 corn stover at 10% final solid concentration. • BG addition: 2 mL of wild type BG concentrated from yEdQ745 (11× concentrated) was added to the respective reaction. • Commercial BG: 1 uL/gm of biomass • Buffer: sodium citrate buffer pH5.0 was used for the reaction • Saccharification temperature: 50° C./24 and 48 hours.

B1: yEdQ885-BG: improved (modified) in-house beta-glucosidase mutant secreted by yeast strain yEdQ885 (protein)
chain: MRFTLIEAVALTAVSLASADELAYSPPYYPSPWANGQGDWAQAYQRAVDIVSQMTLDEKVNLTTGTGWELELCVGQTGGVPRLGVPGMCLQDSPLGVRDSDYNSAFPAGMNVAATWDKNLAYLRGKAMGQEFSDKGADIQLGPAAGPLGRSPDGGRNWEGFSPDPALSGVLFAETIKGIQDAGVVATAKHYIAYEQEHFRQAPEAQGFGFNISESGSANLDDKTMHELYLWPFADAIRAGAGAVMCSYNQINNSYGCQNSYTLNKLLKAELGFQGFVMSDWAAHHAGVSGALAGLDMSMPGDVDYDSGTSYWGTNLTISVLNGTVPQWRVDDMAVRIMAAYYKVGRDRLWTPPNFSSWTRDECGYKYYYVSEGPFEKVNQYVNVQRNHSELIRRIGADSTVLLKNDGALPLTGKERLVALIGEDAGSNPYGANGCSDRGCDNGTLAMGWGSGTANFPYLVTPEQAISNEVLKHKNGVFTATDNWAIDQIEALAKTASVSLVFVNADSGEGYINVDGNLGDRRNLTLWRNGDNVIKAAASNCNNTIVVIHSVGPVLVNEWYDNPNVTAILWGGLPGQESGNSLADVLYGRVNPGAKSPFTWGKTREAYQDFLVTEPNNGNGAPQEDFVEGVFIDYRGFDKRNETPIYEFGYGLSYTTFNYSNLEVQVLSAPAYEPASGETEAAPTFGEVGNASDYLYPSGLQRITKFIYPWLNGTDLEASSGDASYGQDSSDYLPEGATDGSAQPILPAGGGPGGNPRLYDELIRVSVTIKNTGKVAGDEVPQLYVSLGGPNEPKIVLRQFERITLQPSEETKWSTTLTRRDLANWNVEKQDWEITSYPKMVFVGSSSRKLPLRASLPTVH
modifications: synthetic mutant beta-glucosidase (BG), BG acid/base mutant #8, yEdQ885 -> Y363C/Y375F/A446A/V498V/G510G/Y560Y/Y610F
For B1, the “specific activity towards pNPG, comparison” value in data set [1] is “higher specific activity towards pNPG than both yEdQ745-BG (wild type) and S-BG”. In addition, the “specific activity towards cellobiose, comparison” value in data set [2] (absence of glucose inhibition) was “higher specific activity towards cellobiose than both yEdQ745-BG (wild type) and S-BG”. In addition, the “optimal CBU/FPU ratio (optimal BG dosage)” value in data set [3] amounted to 2. The “performance in enhancing saccharification, comparison” value in data set [3] (optimal BG dosage) is given as “outperformed the other three BGs”. For the same molecule, in data set [3] (optimal BG dosage, up to 48 h), the “enhancement of sugar release” value was “more than 50%” and the “lift of sugar conversion” value is “more than 13%”.

B2: yEdQ745-BG: wild type Aspergillus niger beta-glucosidase (Accession CAB75696.1, SEQ ID NO:2) secreted by yeast strain yEdQ745 (protein)
chain: B1 chain with C363Y, F375Y, F610Y
modifications: Aspergillus niger; wild type beta-glucosidase (BG)
As for B2, the “specific activity towards cellobiose, comparison” value in data set [2] (all conditions tested) is “the lowest”. Further, the “optimal CBU/FPU ratio (optimal BG dosage)” value in data set [3] was 1. Further, the “effect of BG supplementation on glucose release / glucan to glucose conversion” value in data set [4] is given as “dramatically increased”.
